Changes are numbered by the printed parent chain. Names may count otherwise.
B1: RRAS2 (wild type), P62070 F75A (protein)
chain: MAAAGWRDGSGQEKYRLVVVGGGGVGKSALTIQFIQSYFVTDYDPTIEDSYTKQCVIDDRAARLDILDTAGQEEAGAMREQYMRTGEGFLLVFSVTDRGSFEEIYKFQRQILRVKDRDEFPMILIGNKADLDHQRQVTQEEGQQLARQLKVTYMEASAKIRMNVDQAFHELVRVIRKFQ
B2: RRAS2 (wild type), P62070 E74A (protein)
chain: B1 chain with E74A, A75F
B3: RRAS2 (wild type), P62070 M78A (protein)
chain: B1 chain with A75F, M78A

biological target: PI3Kα-RBD (PIK3CA-RBD(157-289)), P42336; experiment: ITC; details: chain shown with the change;; parent: est. 8.0 µM; read off a plot

Binder	Kd [µM]
B1	21
B2	12
B3	130
